Assay [1] addresses T1, GST-FLJ 10324 PDZ domain 1 [GST: P08515].
T1 chain: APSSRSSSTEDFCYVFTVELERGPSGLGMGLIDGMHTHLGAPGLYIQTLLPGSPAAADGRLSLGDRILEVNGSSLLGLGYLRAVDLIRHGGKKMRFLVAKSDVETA
In words: G' assay. Further: key of the grades not given here.

In assay [2] the target is GST-PIST PDZ domain 1 (Mus musculus (Mouse)), Q8BH60. In words: G' assay. Further: key of the grades not given here.
Assay [3] deals with T2, GST-PTPL1 PDZ domain 2 (Homo sapiens (Human)), Q12923.
T2 chain: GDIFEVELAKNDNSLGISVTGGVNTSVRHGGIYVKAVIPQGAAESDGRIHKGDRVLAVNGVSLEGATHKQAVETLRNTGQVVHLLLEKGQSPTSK
In words: G' assay. Further: key of the grades not given here.

Assay [4] concerns the target T3, GST-KIAA1634 PDZ domain 2 (Homo sapiens (Human)), Q5TCQ9.
T3 chain: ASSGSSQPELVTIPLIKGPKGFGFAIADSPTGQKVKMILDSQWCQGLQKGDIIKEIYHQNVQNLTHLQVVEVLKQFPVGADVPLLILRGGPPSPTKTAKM
In words: G' assay. Further: key of the grades not given here.

In assay [5] the target is GST-BAI-1 Associated Protein PDZ domain 3 (Homo sapiens (Human)), Q96QZ7. As to the kind of experiment: G' assay. Further: key of the grades not given here.
Chain of GST-BAI-1 Associated Protein PDZ domain 3 (Homo sapiens (Human)), Q96QZ7 (Q96QZ7 other isoform, or with tags, fused parts or gaps): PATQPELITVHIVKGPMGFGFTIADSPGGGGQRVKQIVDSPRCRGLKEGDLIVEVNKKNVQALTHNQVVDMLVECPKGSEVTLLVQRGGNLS
The target in assay [6] is T4, GST-PTPL1 PDZ domain 4 (Homo sapiens (Human)), Q12923.
T4 chain: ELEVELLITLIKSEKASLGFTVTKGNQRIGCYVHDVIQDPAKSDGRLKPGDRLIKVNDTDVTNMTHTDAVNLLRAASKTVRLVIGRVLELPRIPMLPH
In words: G' assay. Further: key of the grades not given here.

Assay [7] concerns the target T5, GST-KIAA0807(S) PDZ domain 1 (Homo sapiens (Human)), Q6P0Q8.
T5 chain: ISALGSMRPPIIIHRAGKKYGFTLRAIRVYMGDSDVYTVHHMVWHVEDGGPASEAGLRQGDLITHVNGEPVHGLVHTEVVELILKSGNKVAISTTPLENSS
As to the kind of experiment: G' assay. Further: key of the grades not given here.

Assay [8] deals with GST-KIAA807 [GST: P08515]. As to the kind of experiment: G' assay. Further: key of the grades not given here.
Chain of GST-KIAA807 [GST: P08515] (P08515 whole entry, the tested form may be a part): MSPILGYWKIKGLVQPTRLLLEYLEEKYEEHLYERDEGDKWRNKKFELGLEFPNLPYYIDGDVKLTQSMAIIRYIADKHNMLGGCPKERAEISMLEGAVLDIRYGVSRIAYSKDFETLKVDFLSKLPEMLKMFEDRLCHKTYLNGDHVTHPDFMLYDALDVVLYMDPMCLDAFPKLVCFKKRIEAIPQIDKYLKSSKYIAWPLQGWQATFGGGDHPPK
In assay [9] the target is T6, GST-FLJ00011 PDZ domain 1 (Homo sapiens (Human)), Q9H5P4.
T6 chain: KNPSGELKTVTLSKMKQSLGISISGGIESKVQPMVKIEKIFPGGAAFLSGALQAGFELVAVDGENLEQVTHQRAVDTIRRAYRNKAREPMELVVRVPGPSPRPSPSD
In words: G' assay.

Assay [10] has as its target T7, GST-INADL PDZ domain 8 (Homo sapiens (Human)), Q8NI35.
T7 chain: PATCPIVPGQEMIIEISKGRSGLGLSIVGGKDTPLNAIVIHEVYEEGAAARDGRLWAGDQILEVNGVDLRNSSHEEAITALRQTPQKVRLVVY
In words: G' assay.

Assay [11] addresses T8, GST-Shank 1 PDZ domain 1 (Homo sapiens (Human)), Q9UPX8.
T8 chain: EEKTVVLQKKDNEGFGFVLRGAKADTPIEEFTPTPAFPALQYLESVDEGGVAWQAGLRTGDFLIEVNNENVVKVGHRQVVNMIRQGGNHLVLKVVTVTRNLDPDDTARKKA
As to the kind of experiment: G' assay.

Assay [12] concerns the target T9, GST-MUPP1 PDZ domain 13 (Homo sapiens (Human)), O75970.
T9 chain: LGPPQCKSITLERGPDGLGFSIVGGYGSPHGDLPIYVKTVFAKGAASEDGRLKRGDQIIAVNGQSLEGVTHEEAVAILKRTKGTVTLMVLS
In words: G' assay.

The target in assay [13] is T10, GST-TIP1 PDZ domain 1 (Table 9 insert) (Homo sapiens (Human)), O14907.
T10 chain: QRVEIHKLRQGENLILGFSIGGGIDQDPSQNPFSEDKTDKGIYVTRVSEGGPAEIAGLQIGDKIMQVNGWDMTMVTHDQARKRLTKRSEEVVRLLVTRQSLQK
In words: G' assay.

Assay [14] addresses T11, GST-HEMBA 1003117 PDZ domain 1 (Homo sapiens (Human)), Q96JH8.
T11 chain: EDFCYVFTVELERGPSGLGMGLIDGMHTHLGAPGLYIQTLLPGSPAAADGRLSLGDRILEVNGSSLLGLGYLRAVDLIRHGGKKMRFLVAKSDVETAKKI
In words: G' assay.

Assay [15] deals with T12, GST-AIPC PDZ domain 1 (Homo sapiens (Human)), O15018.
T12 chain: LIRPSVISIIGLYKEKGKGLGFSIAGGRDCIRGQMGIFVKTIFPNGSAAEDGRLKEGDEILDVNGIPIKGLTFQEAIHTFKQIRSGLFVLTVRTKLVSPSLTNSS
In words: G' assay.

The target in assay [16] is T13, GST-Syntrophin gamma 1 PDZ domain 1 (Homo sapiens (Human)), Q9NSN8.
T13 chain: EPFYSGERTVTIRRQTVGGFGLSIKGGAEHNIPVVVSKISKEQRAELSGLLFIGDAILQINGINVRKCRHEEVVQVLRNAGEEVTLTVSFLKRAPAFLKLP
As to the kind of experiment: G' assay.

In assay [17] the target is T14, GST-MINT1 PDZ domain 2 (Mus musculus (Mouse)), B2RUJ5.
T14 chain: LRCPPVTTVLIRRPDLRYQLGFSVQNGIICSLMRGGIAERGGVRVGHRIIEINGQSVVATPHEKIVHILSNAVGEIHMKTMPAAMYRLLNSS
As to the kind of experiment: G' assay.

Assay [18] has as its target T15, GST-MINT1 PDZ domains 1, 2, Q02410.
T15 chain: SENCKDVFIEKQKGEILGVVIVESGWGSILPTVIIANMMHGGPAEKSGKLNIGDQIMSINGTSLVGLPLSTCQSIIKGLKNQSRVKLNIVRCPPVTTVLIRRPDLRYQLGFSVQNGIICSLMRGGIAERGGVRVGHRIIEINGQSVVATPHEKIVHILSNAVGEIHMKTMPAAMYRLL
As to the kind of experiment: G' assay.

Assay [19] addresses T16, GST-GRIP 1 PDZ domain 3 (Homo sapiens (Human)), Q9Y3R0.
T16 chain: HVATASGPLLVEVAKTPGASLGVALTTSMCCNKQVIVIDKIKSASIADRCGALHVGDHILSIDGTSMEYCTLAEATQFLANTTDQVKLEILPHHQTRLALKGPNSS
In words: G' assay.

The target in assay [20] is GST-Atrophin-1 Interacting Protein PDZ domain 5 (Rattus norvegicus (Rat)), O88382. As to the kind of experiment: G' assay. Further: key of the grades not given here.
Chain of GST-Atrophin-1 Interacting Protein PDZ domain 5 (Rattus norvegicus (Rat)), O88382 (O88382 1128-1225): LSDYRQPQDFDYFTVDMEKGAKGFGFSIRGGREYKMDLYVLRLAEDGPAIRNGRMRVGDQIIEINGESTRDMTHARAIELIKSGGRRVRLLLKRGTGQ
Assay [21] addresses T8, GST-Shank 1 PDZ domain 1 (Homo sapiens …). As to the kind of experiment: G assay titration, PDZ 5 ug/ml.
Assay [22] deals with T2, GST-PTPL1 PDZ domain 2 (Homo sapiens …). In words: G assay titration, PDZ 1 ug/ml.
Assay [23] addresses T5, GST-KIAA0807(S) PDZ domain 1 (Homo …). In words: G assay titration, PDZ 0.5 ug/ml.
The target of assay [24] is GST-TAX IP2 PDZ domain 1 [GST: P08515]. As to the kind of experiment: G' assay.
Chain of GST-TAX IP2 PDZ domain 1 [GST: P08515] (P08515 whole entry, the tested form may be a part): as the sequence (P08515 whole entry, the tested form may be a part) above
Assay [25] shares this target. In words: G assay titration, PDZ 1 ug/ml.
In assay [26] the target is GST-PSD95 PDZ domains 1, 2, 3 (Homo sapiens), P78352. In words: G' assay. Further: key of the grades not given here.
Chain of GST-PSD95 PDZ domains 1, 2, 3 (Homo sapiens), P78352 (P78352 62-395): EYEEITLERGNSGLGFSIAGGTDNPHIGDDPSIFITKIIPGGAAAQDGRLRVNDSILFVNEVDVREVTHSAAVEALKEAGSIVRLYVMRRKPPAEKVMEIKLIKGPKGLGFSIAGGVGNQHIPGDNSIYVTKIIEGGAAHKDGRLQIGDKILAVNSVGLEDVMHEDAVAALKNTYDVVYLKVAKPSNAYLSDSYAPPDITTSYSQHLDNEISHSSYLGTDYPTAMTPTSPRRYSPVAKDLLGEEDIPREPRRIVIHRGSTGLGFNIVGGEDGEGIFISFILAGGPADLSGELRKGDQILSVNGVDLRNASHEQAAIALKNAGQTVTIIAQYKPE
Assay [27] addresses T17, GST-NeDLG PDZ domain 3 (Mus musculus (Mouse)), P70175.
T17 chain: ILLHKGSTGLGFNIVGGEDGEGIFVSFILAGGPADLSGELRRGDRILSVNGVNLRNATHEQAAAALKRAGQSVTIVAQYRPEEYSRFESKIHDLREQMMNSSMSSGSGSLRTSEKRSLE
As to the kind of experiment: G' assay.

Assay [28] deals with T18, GST-EZRIN Binding Protein 50 PDZ domain 2 (Homo sapiens (Human)), O14745.
T18 chain: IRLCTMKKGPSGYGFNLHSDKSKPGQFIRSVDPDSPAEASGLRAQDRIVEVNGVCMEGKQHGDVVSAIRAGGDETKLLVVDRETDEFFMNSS
As to the kind of experiment: G' assay.

Assay [29] concerns the target T19, GST-NeDLG PDZ domains 1, 2, Q92796.
T19 chain: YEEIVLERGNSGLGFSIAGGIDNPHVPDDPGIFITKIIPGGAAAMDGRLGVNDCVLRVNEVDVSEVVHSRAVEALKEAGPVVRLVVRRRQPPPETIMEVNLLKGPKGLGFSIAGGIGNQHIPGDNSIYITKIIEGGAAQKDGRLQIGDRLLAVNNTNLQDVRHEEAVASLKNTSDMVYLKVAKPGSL
As to the kind of experiment: G' assay.

Assay [30] addresses GST-KIAA1634 PDZ domain 1 (Homo sapiens (Human)), Q5TCQ9. In words: G' assay. Further: key of the grades not given here.
The target of assay [31] is T20, GST-ZO-1 PDZ domain 1 (Rattus norvegicus (Rat)), A0A0G2.
T20 chain: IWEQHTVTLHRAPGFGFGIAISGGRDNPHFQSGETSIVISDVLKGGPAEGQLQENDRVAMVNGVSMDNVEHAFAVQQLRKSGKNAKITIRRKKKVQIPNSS
In words: G' assay.

Assay [32] concerns the target T21, GST-EZRIN Binding Protein 50 PDZ domain 1 (Homo sapiens (Human)), O14745.
T21 chain: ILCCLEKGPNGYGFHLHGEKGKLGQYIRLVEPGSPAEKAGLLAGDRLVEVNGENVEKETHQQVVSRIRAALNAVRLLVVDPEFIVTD
In words: G' assay.

Assay [33] has as its target T22, GST-Shank 3 PDZ domain 1 (human (hypothetical, computer cloned)), Q9BYB0.
T22 chain: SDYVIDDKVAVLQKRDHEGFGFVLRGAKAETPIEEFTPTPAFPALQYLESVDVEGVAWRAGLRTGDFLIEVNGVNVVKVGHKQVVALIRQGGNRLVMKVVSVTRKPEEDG
In words: G' assay.

Assay [34] concerns the target T23, GST-Atrophin-1 Interacting Protein PDZ domain 1 (Rattus norvegicus (Rat)), O88382. In words: G' assay. Further: key of the grades not given here.
Assay [35] deals with GST-DLG1 PDZ domains 1, 2 (Homo sapiens), Q12959. In words: G' assay. Further: key of the grades not given here.
The target of assay [36] is T24, GST-NOS1 PDZ domain 1 (Homo sapiens (Human)), P29475.
T24 chain: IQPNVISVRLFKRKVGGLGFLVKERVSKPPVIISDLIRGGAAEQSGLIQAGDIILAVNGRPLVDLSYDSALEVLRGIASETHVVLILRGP
As to the kind of experiment: G' assay. The note with it: remark: other sources report otherwise.

In assay [37] the target is T23, GST-Atrophin-1 Interacting Protein PDZ …. As to the kind of experiment: G assay titration, PDZ 5 ug/ml.
Assay [38] concerns the target GST-KIAA1634 PDZ domain 1 (Homo sapiens (Human)), Q5TCQ9. As to the kind of experiment: G assay titration, PDZ 1 ug/ml.

T23 sequence (O88382 408-511): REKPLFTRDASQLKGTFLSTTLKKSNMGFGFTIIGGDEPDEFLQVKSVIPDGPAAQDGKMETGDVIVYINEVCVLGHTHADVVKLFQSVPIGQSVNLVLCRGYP
Chain of GST-KIAA1634 PDZ domain 1 (Homo sapiens (Human)), Q5TCQ9 (Q5TCQ9 401-502): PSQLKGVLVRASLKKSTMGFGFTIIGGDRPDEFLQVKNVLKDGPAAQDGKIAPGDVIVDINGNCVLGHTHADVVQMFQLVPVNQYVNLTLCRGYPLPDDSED

Regarding DSDPENEPFDEDQHTQITKV (modifications not checked) [PTEN], the Classification is 1 A450 class in assay [1]; 1 A450 class in assay [2]; 4 A450 class in assay [3]; 5 A450 class in assay [4]; 2 A450 class in assay [5]; 1 A450 class in assay [6]. Also, the Classification worked out at 5 A450 class in assay [7]; 5 A450 class in [8]; 3 A450 class in [9]; 1 A450 class in assay [10]; 3 A450 class in [11]; 5 A450 class in assay [12]. Moreover, the Classification in assay [13] was 2 A450 class; in assay [14] it was 1 A450 class; in [15] it was 1 A450 class; in assay [16], 1 A450 class; in [17], 1 A450 class; in assay [18], 1 A450 class. In addition, the Classification in assay [19] was determined as 1 A450 class; in assay [20] it was 2 A450 class. The equilibrium dissociation constant (Kd) in [21] was determined as 1500 nM; in assay [22], 300 nM; in assay [23] it was 300 nM.
On to VDSERRPHFPQFSYSASSTA (modifications not checked) [AKT1], for which the Classification in assay [7] was determined as 1 A450 class; in assay [8] it was 1 A450 class; in assay [24], 4 A450 class. Also, the Kd in assay [25] is 2500 nM.
For TFAAGFNSTGLPHSTTRV (modifications not checked) [Neuroligin], the Classification in assay [1] came to 1 A450 class; in assay [26], 2 A450 class; in assay [3], 1 A450 class; in assay [27] it was 1 A450 class; in assay [4] it was 2 A450 class; in assay [6], 1 A450 class. Moreover, the Classification in assay [28] is 1 A450 class; in assay [7], 3 A450 class; in assay [8], 3 A450 class; in assay [29], 1 A450 class; in [10] it was 1 A450 class; in assay [11], 2 A450 class. Also, the Classification came to 4 A450 class in [30]; 1 A450 class in assay [13]; 1 A450 class in [31]; 2 A450 class in [32]; 3 A450 class in assay [33]; 1 A450 class in assay [18]. Also, the Classification in [34] amounted to 2 A450 class; in assay [35], 2 A450 class; in [36] it was 1 A450 class. Moreover, the results for the Kd in assay [21], in assay [37] and in assay [38] were 300 nM, 250 nM and 100 nM, respectively.

Values taken from patent US20050282743A1, “Molecular interactions in cells” (Arbor Vita Corporation, priority 2001, published 2005).
